Assay results: patent US20060199194A1

What was measured:
[1] = target: TAU-412 target protein (human) (UniProt P10636); assay: sandwich Immuno Q-Amp assay: capture MN1010, TAU-412 10 ng per well, biotin MN1000 reporter, avidin-biotin-MNVplus template, Q-beta replicase, SYBR Green fluorescence; Superblock blocking
[2] = target: TAU-412 target protein (human) (UniProt P10636); assay: sandwich Immuno Q-Amp assay: capture MN1010, TAU-412 10 ng per well, biotin MN1000 reporter, avidin-biotin-MNVplus template, Q-beta replicase, SYBR Green fluorescence; Startingblock blocking

UniProt P10636, sequence (P10636 other isoform, or with tags, fused parts or gaps): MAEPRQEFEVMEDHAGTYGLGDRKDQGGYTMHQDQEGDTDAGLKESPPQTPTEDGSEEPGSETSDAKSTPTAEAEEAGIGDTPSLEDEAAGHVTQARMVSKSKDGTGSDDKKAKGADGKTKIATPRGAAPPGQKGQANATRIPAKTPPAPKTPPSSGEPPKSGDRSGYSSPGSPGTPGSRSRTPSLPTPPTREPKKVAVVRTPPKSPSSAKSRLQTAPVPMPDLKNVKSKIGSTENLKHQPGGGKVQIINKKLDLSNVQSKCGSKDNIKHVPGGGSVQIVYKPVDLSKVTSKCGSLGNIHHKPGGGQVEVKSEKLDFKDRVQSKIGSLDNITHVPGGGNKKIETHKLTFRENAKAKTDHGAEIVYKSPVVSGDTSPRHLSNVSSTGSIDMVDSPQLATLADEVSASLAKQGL

Substance: anti-TAU, biotinylated antibody MN-1000 (Pierce, #MN1000B)
- RT (response time, Superblock blocking) [1]: 15 min
- RT (response time, starting block blocking) [2]: 13.5 min
